Measured values reported in patent publication US20240392004A1 (IMMUNOWAKE, published 2024).

B1: anti-PD-1 antibody HC-CDR3(D100G) (antibody, V domains shown)
VH: QVQLVESGGGVVQPGRSLRLDCKASGITFSNSGMHWVRQAPGKGLEWVAVIWYDGSKRYYADSVKGRFTISRDNSKNTLFLQMNSLRAEDTAVYYCATNGDYWGQGTLVTVSS
VL: EIVLTQSPATLSLSPGERATLSCRASQSVSSYLAWYQQKPGQAPRLLIYDASNRATGIPARFSGSGSGTDFTLTISSLEPEDFAVYYCQQSSNWPRTFGQGTKVEIKR
notes: constant parts as m82
B2: anti-PD-1 antibody HC-CDR3(D100N) (antibody, V domains shown)
VH: QVQLVESGGGVVQPGRSLRLDCKASGITFSNSGMHWVRQAPGKGLEWVAVIWYDGSKRYYADSVKGRFTISRDNSKNTLFLQMNSLRAEDTAVYYCATNNDYWGQGTLVTVSS
VL: EIVLTQSPATLSLSPGERATLSCRASQSVSSYLAWYQQKPGQAPRLLIYDASNRATGIPARFSGSGSGTDFTLTISSLEPEDFAVYYCQQSSNWPRTFGQGTKVEIKR
notes: constant parts as m82
B3: PD-L1(I54Q/Y56F/E58M/R113T/M115L/S117A/G119K)-Fc/IL-12(E59A/F60A) (IL-12 at C-terminus of Fc) (Fc fusion)
chain 1: FTVTVPKDLYVVEYGSNMTIECKFPVEKQLDLAALQVFWMMEDKNIIQFVHGEEDLKVQHSSYRQRARLLKDQLSLGNAALQITDVKLQDAGVYTCLIAYKGADYKRITVKVNAPYNKINQRILVVDPVTSEHELTCQAEGYPKAEVIWTSSDHQVLSGKTTTTNSKREEKLFNVTSTLRINTTTNEIFYCTFRRLDPEENHTAELVIPELPLAHPPNERGSGDKTHTCPPCPAPEKKGGPSVFLFPPKPKDTLMISRTPEVTCVVVDVSHEDPEVKFNWYVDGVEVHNAKTKPREEQYNSTYRVVSVLTVLHQDWLNGKEYKCKVSNKALPAPIEKTISKAKGQPREPQVYVLPPSREEMTKNQVSLLCLVKGFYPSDIAVEWESNGQPENRYMTWPPVLDSDGSFFLYSKLTVDKSRWQQGNVFSCSVMHEALHNHYTQKSLSLSPGK
chain 2: FTVTVPKDLYVVEYGSNMTIECKFPVEKQLDLAALQVFWMMEDKNIIQFVHGEEDLKVQHSSYRQRARLLKDQLSLGNAALQITDVKLQDAGVYTCLIAYKGADYKRITVKVNAPYNKINQRILVVDPVTSEHELTCQAEGYPKAEVIWTSSDHQVLSGKTTTTNSKREEKLFNVTSTLRINTTTNEIFYCTFRRLDPEENHTAELVIPELPLAHPPNERGSGDKTHTCPPCPAPEDEGGPSVFLFPPKPKDTLMISRTPEVTCVVVDVSHEDPEVKFNWYVDGVEVHNAKTKPREEQYNSTYRVVSVLTVLHQDWLNGKEYKCKVSNKALPAPIEKTISKAKGQPREPQVYVYPPSREEMTKNQVSLTCLVKGFYPSDIAVEWESNGQPENNYKTTPPVLDEDGSFALVSKLTVDKSRWQQGNVFSCSVMHEALHNHYTQKSLSLSPGKGGGGSGGGGSGGGGSIWELKKDVYVVELDWYPDAPGEMVVLTCDTPEEDGITWTLDQSSEVLGSGKTLTIQVKAAGDAGQYTCHKGGEVLSHSLLLLHKKEDGIWSTDILKDQKEPKNKTFLRCEAKNYSGRFTCWWLTTISTDLTFSVKSSRGSSDPQGVTCGAATLSAERVRGDNKEYEYSVECQEDSACPAAEESLPIEVMVDAVHKLKYENYTSSFFIRDIIKPDPPKNLQLKPLKNSRQVEVSWEYPDTWSTPHSYFSLTFCVQVQGKSKREKKDRVFTDKTSATVICRKNASISVRAQDRYYSSSWSEWASVPCSGGGGSGGGGSGGGGSGGGGSGRNLPVATPDPGMFPCLHHSQNLLRAVSNMLQKARQTLEFYPCTSEEIDHEDITKDKTSTVEACLPLELTKNESCLNSRETSFITNGSCLASRKTSFMMALCLSSIYEDLKMYQVEFKTMNAKLLMDPKRQIFLDQNMLAVIDELMQALNFNSETVPQKSSLEEPDFYKTKIKLCILLHAFRIRAVTIDRVMSYLNAS
B4: IL-12(E59A/F60A)/PD-L1(I54Q/Y56F/E58M/R113T/M115L/S117A/G119K)-Fc (IL-12 at hinge) (Fc fusion)
chain 1: FTVTVPKDLYVVEYGSNMTIECKFPVEKQLDLAALQVFWMMEDKNIIQFVHGEEDLKVQHSSYRQRARLLKDQLSLGNAALQITDVKLQDAGVYTCLIAYKGADYKRITVKVNAPYNKINQRILVVDPVTSEHELTCQAEGYPKAEVIWTSSDHQVLSGKTTTTNSKREEKLFNVTSTLRINTTTNEIFYCTFRRLDPEENHTAELVIPELPLAHPPNERGSGDKTHTCPPCPAPEKKGGPSVFLFPPKPKDTLMISRTPEVTCVVVDVSHEDPEVKFNWYVDGVEVHNAKTKPREEQYNSTYRVVSVLTVLHQDWLNGKEYKCKVSNKALPAPIEKTISKAKGQPREPQVYVLPPSREEMTKNQVSLLCLVKGFYPSDIAVEWESNGQPENRYMTWPPVLDSDGSFFLYSKLTVDKSRWQQGNVFSCSVMHEALHNHYTQKSLSLSPGK
chain 2: FTVTVPKDLYVVEYGSNMTIECKFPVEKQLDLAALQVFWMMEDKNIIQFVHGEEDLKVQHSSYRQRARLLKDQLSLGNAALQITDVKLQDAGVYTCLIAYKGADYKRITVKVNAPYNKINQRILVVDPVTSEHELTCQAEGYPKAEVIWTSSDHQVLSGKTTTTNSKREEKLFNVTSTLRINTTTNEIFYCTFRRLDPEENHTAELVIPELPLAHPPNERGSGIWELKKDVYVVELDWYPDAPGEMVVLTCDTPEEDGITWTLDQSSEVLGSGKTLTIQVKAAGDAGQYTCHKGGEVLSHSLLLLHKKEDGIWSTDILKDQKEPKNKTFLRCEAKNYSGRFTCWWLTTISTDLTFSVKSSRGSSDPQGVTCGAATLSAERVRGDNKEYEYSVECQEDSACPAAEESLPIEVMVDAVHKLKYENYTSSFFIRDIIKPDPPKNLQLKPLKNSRQVEVSWEYPDTWSTPHSYFSLTFCVQVQGKSKREKKDRVFTDKTSATVICRKNASISVRAQDRYYSSSWSEWASVPCSGGGGSGGGGSGGGGSGGGGSGRNLPVATPDPGMFPCLHHSQNLLRAVSNMLQKARQTLEFYPCTSEEIDHEDITKDKTSTVEACLPLELTKNESCLNSRETSFITNGSCLASRKTSFMMALCLSSIYEDLKMYQVEFKTMNAKLLMDPKRQIFLDQNMLAVIDELMQALNFNSETVPQKSSLEEPDFYKTKIKLCILLHAFRIRAVTIDRVMSYLNASDKTHTCPPCPAPEDEGGPSVFLFPPKPKDTLMISRTPEVTCVVVDVSHEDPEVKFNWYVDGVEVHNAKTKPREEQYNSTYRVVSVLTVLHQDWLNGKEYKCKVSNKALPAPIEKTISKAKGQPREPQVYVYPPSREEMTKNQVSLTCLVKGFYPSDIAVEWESNGQPENNYKTTPPVLDEDGSFALVSKLTVDKSRWQQGNVFSCSVMHEALHNHYTQKSLSLSPGK
B5: PD-L1(I54Q/Y56F/E58M/R113T/M115L/S117A/G119K)-Fc/IL-12(F60A) (IL-12 at C-terminus of Fc) (Fc fusion)
chain 1: FTVTVPKDLYVVEYGSNMTIECKFPVEKQLDLAALQVFWMMEDKNIIQFVHGEEDLKVQHSSYRQRARLLKDQLSLGNAALQITDVKLQDAGVYTCLIAYKGADYKRITVKVNAPYNKINQRILVVDPVTSEHELTCQAEGYPKAEVIWTSSDHQVLSGKTTTTNSKREEKLFNVTSTLRINTTTNEIFYCTFRRLDPEENHTAELVIPELPLAHPPNERGSGDKTHTCPPCPAPEKKGGPSVFLFPPKPKDTLMISRTPEVTCVVVDVSHEDPEVKFNWYVDGVEVHNAKTKPREEQYNSTYRVVSVLTVLHQDWLNGKEYKCKVSNKALPAPIEKTISKAKGQPREPQVYVLPPSREEMTKNQVSLLCLVKGFYPSDIAVEWESNGQPENRYMTWPPVLDSDGSFFLYSKLTVDKSRWQQGNVFSCSVMHEALHNHYTQKSLSLSPGK
chain 2: FTVTVPKDLYVVEYGSNMTIECKFPVEKQLDLAALQVFWMMEDKNIIQFVHGEEDLKVQHSSYRQRARLLKDQLSLGNAALQITDVKLQDAGVYTCLIAYKGADYKRITVKVNAPYNKINQRILVVDPVTSEHELTCQAEGYPKAEVIWTSSDHQVLSGKTTTTNSKREEKLFNVTSTLRINTTTNEIFYCTFRRLDPEENHTAELVIPELPLAHPPNERGSGDKTHTCPPCPAPEDEGGPSVFLFPPKPKDTLMISRTPEVTCVVVDVSHEDPEVKFNWYVDGVEVHNAKTKPREEQYNSTYRVVSVLTVLHQDWLNGKEYKCKVSNKALPAPIEKTISKAKGQPREPQVYVYPPSREEMTKNQVSLTCLVKGFYPSDIAVEWESNGQPENNYKTTPPVLDEDGSFALVSKLTVDKSRWQQGNVFSCSVMHEALHNHYTQKSLSLSPGKGGGGSGGGGSGGGGSIWELKKDVYVVELDWYPDAPGEMVVLTCDTPEEDGITWTLDQSSEVLGSGKTLTIQVKEAGDAGQYTCHKGGEVLSHSLLLLHKKEDGIWSTDILKDQKEPKNKTFLRCEAKNYSGRFTCWWLTTISTDLTFSVKSSRGSSDPQGVTCGAATLSAERVRGDNKEYEYSVECQEDSACPAAEESLPIEVMVDAVHKLKYENYTSSFFIRDIIKPDPPKNLQLKPLKNSRQVEVSWEYPDTWSTPHSYFSLTFCVQVQGKSKREKKDRVFTDKTSATVICRKNASISVRAQDRYYSSSWSEWASVPCSGGGGSGGGGSGGGGSGGGGSGRNLPVATPDPGMFPCLHHSQNLLRAVSNMLQKARQTLEFYPCTSEEIDHEDITKDKTSTVEACLPLELTKNESCLNSRETSFITNGSCLASRKTSFMMALCLSSIYEDLKMYQVEFKTMNAKLLMDPKRQIFLDQNMLAVIDELMQALNFNSETVPQKSSLEEPDFYKTKIKLCILLHAFRIRAVTIDRVMSYLNAS
B6: IL-12(F60A)/PD-L1(I54Q/Y56F/E58M/R113T/M115L/S117A/G119K)-Fc (IL-12 at hinge) (Fc fusion)
chain 1: FTVTVPKDLYVVEYGSNMTIECKFPVEKQLDLAALQVFWMMEDKNIIQFVHGEEDLKVQHSSYRQRARLLKDQLSLGNAALQITDVKLQDAGVYTCLIAYKGADYKRITVKVNAPYNKINQRILVVDPVTSEHELTCQAEGYPKAEVIWTSSDHQVLSGKTTTTNSKREEKLFNVTSTLRINTTTNEIFYCTFRRLDPEENHTAELVIPELPLAHPPNERGSGDKTHTCPPCPAPEKKGGPSVFLFPPKPKDTLMISRTPEVTCVVVDVSHEDPEVKFNWYVDGVEVHNAKTKPREEQYNSTYRVVSVLTVLHQDWLNGKEYKCKVSNKALPAPIEKTISKAKGQPREPQVYVLPPSREEMTKNQVSLLCLVKGFYPSDIAVEWESNGQPENRYMTWPPVLDSDGSFFLYSKLTVDKSRWQQGNVFSCSVMHEALHNHYTQKSLSLSPGK
chain 2: FTVTVPKDLYVVEYGSNMTIECKFPVEKQLDLAALQVFWMMEDKNIIQFVHGEEDLKVQHSSYRQRARLLKDQLSLGNAALQITDVKLQDAGVYTCLIAYKGADYKRITVKVNAPYNKINQRILVVDPVTSEHELTCQAEGYPKAEVIWTSSDHQVLSGKTTTTNSKREEKLFNVTSTLRINTTTNEIFYCTFRRLDPEENHTAELVIPELPLAHPPNERGSGIWELKKDVYVVELDWYPDAPGEMVVLTCDTPEEDGITWTLDQSSEVLGSGKTLTIQVKEAGDAGQYTCHKGGEVLSHSLLLLHKKEDGIWSTDILKDQKEPKNKTFLRCEAKNYSGRFTCWWLTTISTDLTFSVKSSRGSSDPQGVTCGAATLSAERVRGDNKEYEYSVECQEDSACPAAEESLPIEVMVDAVHKLKYENYTSSFFIRDIIKPDPPKNLQLKPLKNSRQVEVSWEYPDTWSTPHSYFSLTFCVQVQGKSKREKKDRVFTDKTSATVICRKNASISVRAQDRYYSSSWSEWASVPCSGGGGSGGGGSGGGGSGGGGSGRNLPVATPDPGMFPCLHHSQNLLRAVSNMLQKARQTLEFYPCTSEEIDHEDITKDKTSTVEACLPLELTKNESCLNSRETSFITNGSCLASRKTSFMMALCLSSIYEDLKMYQVEFKTMNAKLLMDPKRQIFLDQNMLAVIDELMQALNFNSETVPQKSSLEEPDFYKTKIKLCILLHAFRIRAVTIDRVMSYLNASDKTHTCPPCPAPEDEGGPSVFLFPPKPKDTLMISRTPEVTCVVVDVSHEDPEVKFNWYVDGVEVHNAKTKPREEQYNSTYRVVSVLTVLHQDWLNGKEYKCKVSNKALPAPIEKTISKAKGQPREPQVYVYPPSREEMTKNQVSLTCLVKGFYPSDIAVEWESNGQPENNYKTTPPVLDEDGSFALVSKLTVDKSRWQQGNVFSCSVMHEALHNHYTQKSLSLSPGK

Experiments:
human PD-1 = molecular target: T1, human PD-1 (human, UniProt Q15116 25-167, limits assumed); experiment: Biacore and cell-based assays, calibrated by wildtype nivolumab binding affinity
T1 construct: also called hPD-1

[1] = molecular target: human PD-1 on cells (HEK-PD-1 reporter cells; activated PBMC) (human, UniProt Q15116 25-288); experiment: cell-based or functional assay
Sequence of human PD-1 on cells (HEK-PD-1 reporter cells; activated PBMC) (Q15116 25-288): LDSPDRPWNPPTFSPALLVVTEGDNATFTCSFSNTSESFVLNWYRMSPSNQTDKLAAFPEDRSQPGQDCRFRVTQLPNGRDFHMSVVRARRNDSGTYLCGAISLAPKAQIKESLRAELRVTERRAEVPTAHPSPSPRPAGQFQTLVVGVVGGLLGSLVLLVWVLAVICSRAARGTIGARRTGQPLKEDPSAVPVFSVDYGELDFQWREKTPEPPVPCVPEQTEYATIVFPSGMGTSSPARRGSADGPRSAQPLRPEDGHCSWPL

T1 sequence (Q15116 25-167 limits assumed): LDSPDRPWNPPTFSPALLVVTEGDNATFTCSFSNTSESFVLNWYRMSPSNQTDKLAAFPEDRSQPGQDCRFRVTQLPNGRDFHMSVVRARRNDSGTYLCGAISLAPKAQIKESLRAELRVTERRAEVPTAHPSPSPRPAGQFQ

| Binder | Kd (human PD-1) [nM] | Biological activity of IL-12, HEK-PD-1-IL-12 reporter assay, % of rIL-12 [1] [%] |
| --- | --- | --- |
| B1 | 130 | – |
| B2 | 25 | – |
| B3 | – | 189 |
| B4 | – | 126 |
| B5 | – | 234 |
| B6 | – | 234 |
